US20240301039A1 (NEW YORK UNIVERSITY IN ABU DHABI, published 2024)

Target: T1, uniformly 15N,13C-labelled wild-type SARS-CoV-2 NSP9 with an additional GlyAlaMetGly tetrapeptide at the … (SARS-CoV-2, UniProt P0DTD1 1-7096)
T1 construct: mature
Assay: 15N-1H HSQC NMR titration at 278 K

B1: nanobody 2NSP23 (VHH)
VHH: QVQLQESGGGLVQPGGSLRLSCAASGLAFSMYTMGWFRQAPGKEREFVAMIISSGDSTDYADSVKGRFTISRDNGKNTVYLQMDSLKPEDTAVYYCAAPKFRYYFSTSPGDFDSWGQGTQVTVSS
notes: also called 2NSP23 with His Tag
For B1, the “backbone amide cross-peaks that survive at protein/nanobody ratio 1:2” value was roughly 35%.
